B1: PLAGL1 (parent)
chain: DPNKMAFGCEECGKKYNTMLGYKR

Variants of: B1
Experiment: protein stability index of a GFP-peptide fusion (GPS, HEK-293T) (PSI 1-6); higher = more stable
Conditions: c terminus: a fixed tail appended
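Also: lentivirally expressed fusions sorted by FACS into six bins by GFP to DsRed ratio, PSI derived from sequencing read proportions per bin multiplied by bin number.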

Question: Which protein stability index does the source give for DPNKMAFGCEECGKKYLTMLGYKR [N17L] here?
Answer: 1.91

Question: For DPNKMAFGCEECGKKYMTMLGYKR [N17M], which protein stability index is on record?
Answer: 1.75

Question: Which protein stability index does the source give for DPNKMAFGCEECGKKYPTMLGYKR [N17P] here?
Answer: 2.35

Question: For DPNKMAFGCEECGKKYQTMLGYKR [N17Q], which protein stability index is on record?
Answer: 2.73

Question: For DPNKMAFGCEECGKKYRTMLGYKR [N17R], which protein stability index is on record?
Answer: 2.02

Question: For DPNKMAFGCEECGKKYSTMLGYKR [N17S], which protein stability index is on record?
Answer: 1.66

Question: With DPNKMAFGCEECGKKYTTMLGYKR [N17T] as the variant, how does the protein stability index read?
Answer: 1.99

Question: With DPNKMAFGCEECGKKYVTMLGYKR [N17V] as the variant, how does the protein stability index read?
Answer: 1.78

Question: Which protein stability index does the source give for DPNKMAFGCEECGKKYWTMLGYKR [N17W] here?
Answer: 1.76

Question: For DPNKMAFGCEECGKKYNAMLGYKR [T18A], which protein stability index is on record?
Answer: 3.2

Question: Which protein stability index does the source give for DPNKMAFGCEECGKKYNCMLGYKR [T18C] here?
Answer: 2.35

Question: Which protein stability index does the source give for DPNKMAFGCEECGKKYNDMLGYKR [T18D] here?
Answer: 2.42

Question: With DPNKMAFGCEECGKKYNEMLGYKR [T18E] as the variant, how does the protein stability index read?
Answer: 2.77

Question: Which protein stability index does the source give for DPNKMAFGCEECGKKYNFMLGYKR [T18F] here?
Answer: 2.15

Question: With DPNKMAFGCEECGKKYNGMLGYKR [T18G] as the variant, how does the protein stability index read?
Answer: 3.07

Question: For DPNKMAFGCEECGKKYNHMLGYKR [T18H], which protein stability index is on record?
Answer: 2.81

Question: For DPNKMAFGCEECGKKYNIMLGYKR [T18I], which protein stability index is on record?
Answer: 2.63

Question: With DPNKMAFGCEECGKKYNKMLGYKR [T18K] as the variant, how does the protein stability index read?
Answer: 3.01

Question: For DPNKMAFGCEECGKKYNLMLGYKR [T18L], which protein stability index is on record?
Answer: 1.85

Question: With DPNKMAFGCEECGKKYNMMLGYKR [T18M] as the variant, how does the protein stability index read?
Answer: 2.18

Question: For DPNKMAFGCEECGKKYNNMLGYKR [T18N], which protein stability index is on record?
Answer: 2.3

Question: For DPNKMAFGCEECGKKYNPMLGYKR [T18P], which protein stability index is on record?
Answer: 2.78

Question: With DPNKMAFGCEECGKKYNQMLGYKR [T18Q] as the variant, how does the protein stability index read?
Answer: 3.04

Question: With DPNKMAFGCEECGKKYNRMLGYKR [T18R] as the variant, how does the protein stability index read?
Answer: 2.6

Question: For DPNKMAFGCEECGKKYNSMLGYKR [T18S], which protein stability index is on record?
Answer: 2.39

Question: For DPNKMAFGCEECGKKYNVMLGYKR [T18V], which protein stability index is on record?
Answer: 1.42

Question: Which protein stability index does the source give for DPNKMAFGCEECGKKYNYMLGYKR [T18Y] here?
Answer: 1.87

Question: With DPNKMAFGCEECGKKYNTALGYKR [M19A] as the variant, how does the protein stability index read?
Answer: 3.16

Question: For DPNKMAFGCEECGKKYNTCLGYKR [M19C], which protein stability index is on record?
Answer: 2.57

Question: With DPNKMAFGCEECGKKYNTELGYKR [M19E] as the variant, how does the protein stability index read?
Answer: 2.32

Question: For DPNKMAFGCEECGKKYNTFLGYKR [M19F], which protein stability index is on record?
Answer: 1.9

Question: Which protein stability index does the source give for DPNKMAFGCEECGKKYNTGLGYKR [M19G] here?
Answer: 2.64

Question: For DPNKMAFGCEECGKKYNTHLGYKR [M19H], which protein stability index is on record?
Answer: 1.32

Question: With DPNKMAFGCEECGKKYNTILGYKR [M19I] as the variant, how does the protein stability index read?
Answer: 2.25

Question: Which protein stability index does the source give for DPNKMAFGCEECGKKYNTKLGYKR [M19K] here?
Answer: 3.55

Question: Which protein stability index does the source give for DPNKMAFGCEECGKKYNTLLGYKR [M19L] here?
Answer: 2.82

Question: For DPNKMAFGCEECGKKYNTNLGYKR [M19N], which protein stability index is on record?
Answer: 2.37

Question: For DPNKMAFGCEECGKKYNTPLGYKR [M19P], which protein stability index is on record?
Answer: 2.27

Question: For DPNKMAFGCEECGKKYNTQLGYKR [M19Q], which protein stability index is on record?
Answer: 2.94

Question: Which protein stability index does the source give for DPNKMAFGCEECGKKYNTRLGYKR [M19R] here?
Answer: 2.99

Question: Which protein stability index does the source give for DPNKMAFGCEECGKKYNTSLGYKR [M19S] here?
Answer: 2.83

Question: For DPNKMAFGCEECGKKYNTTLGYKR [M19T], which protein stability index is on record?
Answer: 2.74

Question: With DPNKMAFGCEECGKKYNTVLGYKR [M19V] as the variant, how does the protein stability index read?
Answer: 2.14

Question: Which protein stability index does the source give for DPNKMAFGCEECGKKYNTWLGYKR [M19W] here?
Answer: 2.11

Question: With DPNKMAFGCEECGKKYNTYLGYKR [M19Y] as the variant, how does the protein stability index read?
Answer: 2.49

Question: For DPNKMAFGCEECGKKYNTMAGYKR [L20A], which protein stability index is on record?
Answer: 2.23

Question: Which protein stability index does the source give for DPNKMAFGCEECGKKYNTMCGYKR [L20C] here?
Answer: 2.59

Question: With DPNKMAFGCEECGKKYNTMDGYKR [L20D] as the variant, how does the protein stability index read?
Answer: 2.82

Question: For DPNKMAFGCEECGKKYNTMEGYKR [L20E], which protein stability index is on record?
Answer: 3.51

Question: For DPNKMAFGCEECGKKYNTMFGYKR [L20F], which protein stability index is on record?
Answer: 2.18

Question: With DPNKMAFGCEECGKKYNTMGGYKR [L20G] as the variant, how does the protein stability index read?
Answer: 2.46

Question: Which protein stability index does the source give for DPNKMAFGCEECGKKYNTMHGYKR [L20H] here?
Answer: 3.08

Question: For DPNKMAFGCEECGKKYNTMIGYKR [L20I], which protein stability index is on record?
Answer: 2.54

Question: With DPNKMAFGCEECGKKYNTMKGYKR [L20K] as the variant, how does the protein stability index read?
Answer: 3.26

Question: Which protein stability index does the source give for DPNKMAFGCEECGKKYNTMMGYKR [L20M] here?
Answer: 2.72

Question: With DPNKMAFGCEECGKKYNTMNGYKR [L20N] as the variant, how does the protein stability index read?
Answer: 2.26

Question: Which protein stability index does the source give for DPNKMAFGCEECGKKYNTMPGYKR [L20P] here?
Answer: 3.11

Question: For DPNKMAFGCEECGKKYNTMQGYKR [L20Q], which protein stability index is on record?
Answer: 2.33

Question: For DPNKMAFGCEECGKKYNTMRGYKR [L20R], which protein stability index is on record?
Answer: 3.46

Question: For DPNKMAFGCEECGKKYNTMSGYKR [L20S], which protein stability index is on record?
Answer: 2.59

Question: For DPNKMAFGCEECGKKYNTMVGYKR [L20V], which protein stability index is on record?
Answer: 2.7

Question: Which protein stability index does the source give for DPNKMAFGCEECGKKYNTMWGYKR [L20W] here?
Answer: 2.73

Question: Which protein stability index does the source give for DPNKMAFGCEECGKKYNTMYGYKR [L20Y] here?
Answer: 2.1

Question: With DPNKMAFGCEECGKKYNTMLAYKR [G21A] as the variant, how does the protein stability index read?
Answer: 3.01

Question: Which protein stability index does the source give for DPNKMAFGCEECGKKYNTMLCYKR [G21C] here?
Answer: 3.09

Question: With DPNKMAFGCEECGKKYNTMLDYKR [G21D] as the variant, how does the protein stability index read?
Answer: 3.13

Question: With DPNKMAFGCEECGKKYNTMLEYKR [G21E] as the variant, how does the protein stability index read?
Answer: 3.33

Question: For DPNKMAFGCEECGKKYNTMLFYKR [G21F], which protein stability index is on record?
Answer: 1.85

Question: Which protein stability index does the source give for DPNKMAFGCEECGKKYNTMLHYKR [G21H] here?
Answer: 2.56

Question: Which protein stability index does the source give for DPNKMAFGCEECGKKYNTMLIYKR [G21I] here?
Answer: 2.26

Question: Which protein stability index does the source give for DPNKMAFGCEECGKKYNTMLKYKR [G21K] here?
Answer: 3.15

Question: With DPNKMAFGCEECGKKYNTMLMYKR [G21M] as the variant, how does the protein stability index read?
Answer: 2.06

Question: For DPNKMAFGCEECGKKYNTMLNYKR [G21N], which protein stability index is on record?
Answer: 2.55

Question: Which protein stability index does the source give for DPNKMAFGCEECGKKYNTMLPYKR [G21P] here?
Answer: 2.64

Question: With DPNKMAFGCEECGKKYNTMLQYKR [G21Q] as the variant, how does the protein stability index read?
Answer: 2.48

Question: Which protein stability index does the source give for DPNKMAFGCEECGKKYNTMLRYKR [G21R] here?
Answer: 2.94

Question: Which protein stability index does the source give for DPNKMAFGCEECGKKYNTMLSYKR [G21S] here?
Answer: 2.87

Question: With DPNKMAFGCEECGKKYNTMLTYKR [G21T] as the variant, how does the protein stability index read?
Answer: 2.08

Question: With DPNKMAFGCEECGKKYNTMLVYKR [G21V] as the variant, how does the protein stability index read?
Answer: 1.81

Question: For DPNKMAFGCEECGKKYNTMLWYKR [G21W], which protein stability index is on record?
Answer: 1.95

Question: For DPNKMAFGCEECGKKYNTMLYYKR [G21Y], which protein stability index is on record?
Answer: 2.06

Question: For DPNKMAFGCEECGKKYNTMLGAKR [Y22A], which protein stability index is on record?
Answer: 2.53

Question: With DPNKMAFGCEECGKKYNTMLGCKR [Y22C] as the variant, how does the protein stability index read?
Answer: 3.69

Question: For DPNKMAFGCEECGKKYNTMLGDKR [Y22D], which protein stability index is on record?
Answer: 3.5

Question: With DPNKMAFGCEECGKKYNTMLGEKR [Y22E] as the variant, how does the protein stability index read?
Answer: 3.26

Question: With DPNKMAFGCEECGKKYNTMLGFKR [Y22F] as the variant, how does the protein stability index read?
Answer: 1.92

Question: Which protein stability index does the source give for DPNKMAFGCEECGKKYNTMLGGKR [Y22G] here?
Answer: 3.07

Question: With DPNKMAFGCEECGKKYNTMLGHKR [Y22H] as the variant, how does the protein stability index read?
Answer: 2.18

Question: Which protein stability index does the source give for DPNKMAFGCEECGKKYNTMLGIKR [Y22I] here?
Answer: 2.8

Question: For DPNKMAFGCEECGKKYNTMLGKKR [Y22K], which protein stability index is on record?
Answer: 3.72

Question: Which protein stability index does the source give for DPNKMAFGCEECGKKYNTMLGLKR [Y22L] here?
Answer: 3.15

Question: For DPNKMAFGCEECGKKYNTMLGMKR [Y22M], which protein stability index is on record?
Answer: 3.01

Question: Which protein stability index does the source give for DPNKMAFGCEECGKKYNTMLGNKR [Y22N] here?
Answer: 2.78

Question: Which protein stability index does the source give for DPNKMAFGCEECGKKYNTMLGPKR [Y22P] here?
Answer: 2.02

Source: the supplement of paper PMC10567573
